Source: the PETadex activity labels (doi:10.1021/acscatal.2c02275)

Assays:
gfPET = assay: Proxy for plastic degradation [Relative activity]; conditions: pH 8; part of the chain shown
pcPET (post-consumer) = assay: Proxy for plastic degradation [Released monomer concentration (HPLC/LC-MS) (MHET+TPA+BHET)]; conditions: pH 8; part of the chain shown

Protein	Proxy for plastic degradation (gfPET) [%]	Proxy for plastic degradation (pcPET (post-consumer)) [mM]
unnamed (protein) MANPYERGPDPTESSIEAVRGPFAVAQTTVSRLQADGFGGGTIYYPTDTSQGTFGAVAISPGFTAGQESIAWLGPRIASQGFVVITIDTITRFDYPDSRGRQLQAALDHLRTNSVVRNRIDPNRMAVMGHSMGGGGALSAAANNTSLEAAIPLQGWHTRKNWSSVRTPTLVVGAQLDTIAPVSSHSEAFYNSLPSDLDKAYMELRGASHLVSNTPDTTTAKYSIAWLKRFVDDDLRYEQFLCPAPDDFAISEYRSTCPF	100	198
unnamed (protein) MANPYERGPDPTESSIEAVRGPFAVAQTTVSRLQADGFGGGTIYYPTDTSQGTFGAVAISPGFTAGQESIAWLGPRIASQGFVVITIDTITRLDQPDSRGRQLQAALDHLRTNSVVRNRIDPNRMAVMGHSMGGGGALSAAANNTSLEAAIPLQGWHTRKNWSSVRTPTLVVGAQLDTIAPVSSHSEAFYNSLPSDLDKAYMELRGASHLVSNTPDTTTAKYSIAWLKRFVDDDLRYEQFLCPAPDDFAISEYRSTCPF		70
unnamed (protein) MSNPYQRGPNPTRSALTADGPFSVATYTVSRLSVSGFGGGVIYYPTGTSLTFGGIAMSPGYTADASSLAWLGRRLASHGFVVLVINTNSRFDGPDSRASQLSAALNYLRTSSPSAVRARLDANRLAVAGHSMGGGGTLRIAEQNPSLKAAVPLTPWHTDKTFNTSVPVLIVGAEADTVAPVSQHAIPFYQNLPSTTPKVYVELCNASHIAPNSNNAAISVYTISWMKLWVDNDTRYRQFLCNVNDPALCDFRTNNRHCQL		90
